For one assay, the target named is Aβ42 amyloid fibrils (UniProt P05067). Kind of assay: microfluidic diffusional sizing.
In assay [1] the target is Aβ42 oligomers formed during the in vitro aggregation of Aβ42 (M1–42) (UniProt P05067). Nature of the assay: TIRF single-molecule colocalisation imaging.

Turning to AF647-labeled DesAb-O (antibody), in the assay with Aβ42 amyloid fibrils, the Kd (in general, the free concentration of one partner at which half of the binding sites on the other are occupied at equilibrium, for simple one-to-one binding) is 1000 nM and the stoichiometry N (DesAb-O per Aβ42 monomer) turned out to be 0.005. Besides, the percentage of coincidence of ThT and AF647-DesAb-O signals in assay [1] was less than 45%.

Values taken from PMC7306997.
